Reference: patent US20200270339A1 (CEPHALON, published 2020)
Values joined by “and” are separate entries in the source; they are usually repeats but may differ in a detail not shown here. Equal entries are not always repeated.

How the values were obtained:
[1] = molecular target: T1, human IL-15 complexed with the IL-15 Receptor-alpha (human, UniProt P40933 49-162); assay: SPR
T1 construct: Co-expressed in HEK293F from plasmids in a 1:1 ratio; also called IL-15/IL-15Rα complex
Target sequence in this assay (P40933 49-162 limits assumed, one chain of several): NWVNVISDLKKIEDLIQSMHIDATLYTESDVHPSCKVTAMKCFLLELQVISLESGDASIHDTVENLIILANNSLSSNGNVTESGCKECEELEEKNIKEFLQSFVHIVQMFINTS

[2] = molecular target: T1, human IL-15 complexed with the IL-15 …; assay: cell-based or functional assay
Target sequence in this assay (P40933 49-162 limits assumed, one chain of several): as above

[3] = molecular target: T1, human IL-15 complexed with the IL-15 …; assay: SPR, run 2
Target sequence in this assay (P40933 49-162 limits assumed, one chain of several): as above

[4] = molecular target: T1, human IL-15 complexed with the IL-15 …; assay: SPR, run 4
Target sequence in this assay (P40933 49-162 limits assumed, one chain of several): as above

[5] = molecular target: T1, human IL-15 complexed with the IL-15 …; assay: SPR, run 5
Target sequence in this assay (P40933 49-162 limits assumed, one chain of several): as above

[6] = molecular target: T1, human IL-15 complexed with the IL-15 …; assay: SPR, run 6
Target sequence in this assay (P40933 49-162 limits assumed, one chain of several): as above

[7] = molecular target: T1, human IL-15 complexed with the IL-15 …; assay: cell-based or functional assay; remark: listed apart in the source
[8] = molecular target: T2, uncomplexed IL-15 Receptor α (human); assay: ELISA and cELISA, hybridoma supernatant
T2 construct: also called IL-15Rα; IL15Rα
T2 chain: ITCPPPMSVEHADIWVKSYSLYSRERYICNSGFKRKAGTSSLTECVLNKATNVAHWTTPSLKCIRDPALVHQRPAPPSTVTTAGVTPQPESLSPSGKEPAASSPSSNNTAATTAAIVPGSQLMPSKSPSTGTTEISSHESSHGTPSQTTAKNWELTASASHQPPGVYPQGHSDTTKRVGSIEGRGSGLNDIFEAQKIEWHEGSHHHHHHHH
Protocol: Microtiter plates were coated with purified IL-15 or purified IL-15Rα or purified IL-15 complex. Briefly, microtiter plates were coated with purified protein in PBS and then blocked with irrelevant proteins such as bovine serum albumin (BSA) diluted in PBS. Dilutions of hybridoma supernatants were added to each well and incubated for 1-2 hours at 37° C. The plates were washed with PBS/TWEEN® 20, and then incubated with a goat-anti-human IgG Fc-specific polyclonal reagent conjugated to a suitable detection reagent […] for 1 hour at 37° C. […] Hybridomas that produced antibodies showing positive reactivity with the IL-15 complex but not with IL-15Rα were selected for further characterization.
cELISA was carried out as follows. HEK cells were transfected with DNA encoding IL-15 and IL-15Rα such that they expressed the IL-15 complex. The transfected HEK cells were coated onto an ELISA plate and dilutions of hybridoma supernatants was applied to the plate so that it could bind to the IL-15 complex expressed on the surface of the cells. The assay was repeated using HEK cells transfected with IL-15Rα such that they expressed uncomplexed IL-15Rα. The advantage of using cELISA in addition to classical ELISA is that a native protein complex is used to screen the antibodies.

[9] = molecular target: T1, human IL-15 complexed with the IL-15 …; assay: SPR, antibody captured on Protein A chip, IL-15 complex as analyte
Protocol: Binding of Antibody 70 variants to human IL-15 complexed with the IL-15 Receptor-alpha were assessed using surface plasmon resonance on a BIACORE® T200 (GE Healthcare) system using a Protein A Sensor Chip (GE Healthcare). Antibodies were captured onto the second flow cell to a level of 150-200 RU. Purified cytokines were diluted to 10 μg/mL in HBS-EP+. Binding was measured by injection of […] of each cytokine at a flow rate of […] across both flow cells and allowing 180 s of dissociation time. The chip surface was regenerated between cycles with two 10 sec pulses of 50 mM sodium hydroxide. The running buffer used was HBS-EP+ (GE Healthcare) and all interactions were measured at 25° C. and data collection rate set to 10 Hz.
A summary of the surface plasmon resonance data is shown on FIG. 36. The affinity can be measured by the KD (the equilibrium dissociation constant between the antibody and its antigen). […] The large difference in KD between variants of Antibody 70 and AMG714 is driven by the dissociation rate (kd). IL-15 dissociates from AMG714 ten times faster than the rate of dissociation of IL-15 from Antibody 70 variants. […] This was tested in a cell based potency assay.

[10] = molecular target: T3, IL-15 E98A co-expressed with IL-15Rα (human, UniProt P40933 49-162); assay: SPR
T3 construct: Purified alanine scan construct, expressed in EXPI293F cells with human IL-15Rα
Protocol: (§1) All interactions were measured at 25° C. and the data collection rate was set to 10 Hz. Data from FC2-1 was used for analysis. The resultant sensorgrams were analysed by creating two custom report points, each calculated for a 5 s window starting either 10 s after injection of the sample (‘early binding’) or 10 s before the end of dissociation (‘late binding’). These values were subtracted from the values for the untransfected control and a relative dissociation rate was estimated by first, taking a ratio of these two custom report points (‘late binding’/‘early binding’) and then, taking the resultant values as a fraction of the value calculated for wild-type human IL-15 complexed with the IL-15 Receptor-alpha (data not shown).
(§2) A Protein A Sensor Chip (GE Healthcare) was used to capture Antibody 70a onto the second flow cell to a capture level of 150-200 RU. Purified IL-15 alanine scan constructs were diluted to 10 μg/mL in HBS-EP+ and then a 2-fold dilution series was made. Binding was measured by injection of 45 μL of each dilution at a flow rate of 30 μL/min across both flow cells and allowing 600 s of dissociation time. The chip surface was regenerated between cycles with a 10 sec pulse of 50 mM sodium hydroxide. The running buffer used was HBS-EP+ (GE Healthcare) All interactions were measured at 25° C. and the data collection rate was set to 10 Hz. Data from Fc2-1 was used for analysis and generated sensorgrams were fitted using a 1:1 Langmuir equation (using local Rmax fitting) to determine KD. […] Antibody 70a had low binding to mutated IL-15 with a Q108A substitution.

[11] = molecular target: T4, IL-15 Q101A co-expressed with IL-15Rα (human, UniProt P40933 49-162); assay: SPR
T4 construct: Purified alanine scan construct, expressed in EXPI293F cells with human IL-15Rα
Protocol: as §1, §2

[12] = molecular target: T5, IL-15 H105A co-expressed with IL-15Rα (human, UniProt P40933 49-162); assay: SPR
T5 construct: Purified alanine scan construct, expressed in EXPI293F cells with human IL-15Rα
Protocol: as §1, §2

[13] = molecular target: T1, human IL-15 complexed with the IL-15 …; assay: cell-based or functional assay; remark: listed apart in the source
[14] = molecular target: T2, uncomplexed IL-15 Receptor α; assay: SPR, antibody captured on Protein A chip
IL-2 = IL-2 (UniProt P60568 21-153); assay: SPR, antibody captured on Protein A chip
IL-4 = molecular target: T6, IL-4 (UniProt P05112 25-153); assay: SPR, antibody captured on Protein A chip
T6 sequence (looked up): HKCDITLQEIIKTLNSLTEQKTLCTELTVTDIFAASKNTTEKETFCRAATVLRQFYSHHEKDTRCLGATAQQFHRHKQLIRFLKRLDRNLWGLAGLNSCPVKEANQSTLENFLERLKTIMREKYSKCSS

IL-7 = molecular target: T7, IL-7 (UniProt P13232 26-177); assay: SPR, antibody captured on Protein A chip
T7 sequence (looked up): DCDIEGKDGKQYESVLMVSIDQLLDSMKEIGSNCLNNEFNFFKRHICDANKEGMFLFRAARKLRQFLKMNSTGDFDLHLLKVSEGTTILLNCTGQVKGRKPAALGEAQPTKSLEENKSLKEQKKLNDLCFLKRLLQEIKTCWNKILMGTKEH

IL-9 = IL-9 (UniProt P15248 19-144); assay: SPR, antibody captured on Protein A chip
IL-21 = IL-21 (UniProt Q9HBE4 30-162, limits assumed); assay: SPR, antibody captured on Protein A chip
[15] = molecular target: T1, human IL-15 complexed with the IL-15 …; assay: subsequent studies, method not restated; subsequent studies; average; analyte form and method not restated

IL-21, sequence (Q9HBE4 30-162 limits assumed): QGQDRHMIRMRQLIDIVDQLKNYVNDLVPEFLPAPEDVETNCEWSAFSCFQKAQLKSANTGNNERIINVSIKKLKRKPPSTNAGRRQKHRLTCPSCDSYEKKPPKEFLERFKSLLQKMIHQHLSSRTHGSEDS
IL-2, sequence (P60568 21-153 limits assumed): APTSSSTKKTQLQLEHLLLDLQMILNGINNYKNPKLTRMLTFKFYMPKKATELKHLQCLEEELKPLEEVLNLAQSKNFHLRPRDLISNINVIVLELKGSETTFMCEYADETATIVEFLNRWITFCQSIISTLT
IL-9, sequence (P15248 19-144 limits assumed): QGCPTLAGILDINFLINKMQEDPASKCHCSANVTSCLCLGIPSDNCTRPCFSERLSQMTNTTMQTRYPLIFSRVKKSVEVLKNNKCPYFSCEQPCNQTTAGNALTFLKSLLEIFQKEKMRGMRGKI
T3 sequence (P40933 49-162 E146A limits assumed): as the sequence (P40933 49-162 limits assumed, one chain of several) above, with E98A counted along it
T4 sequence (P40933 49-162 Q149A limits assumed): as the sequence (P40933 49-162 limits assumed, one chain of several) above, with Q101A counted along it
T5 sequence (P40933 49-162 H153A limits assumed): as the sequence (P40933 49-162 limits assumed, one chain of several) above, with H105A counted along it

Binder	Kd [1]	koff [1]	kon [1]	IC 50 (NK-92) in pM [7]	Max IC50 (pM), NK-92 proliferation assay [13]	Mean IC50 (pM), NK-92 proliferation assay [13]	Min IC50 (pM), NK-92 proliferation assay [13]	binding result [14]	binding result (IL-2)	binding result (IL-4)	binding result (IL-7)	binding result (IL-9)	binding result (IL-21)	also measured
Antibody 4 (antibody, V domains shown, not shown: a dimerising Fc or GST, from section 3.4 on as recombinant human IgG1 lambda; also called parent antibody; parental antibody) VH: QVQLQESGPGLVKPSGTLSLTCAVSGGSISSSNWWSWVRQPPGKGLEWIGEIYHSGNTNYNPSLKSRVTISVDKSKNQFSLKLISVTAADTAVYYCAREGIGWPSFDYWGQGTLVTVSS VL: SSELTQDPAASVALGQTVRITCQGDTLRNYYASWYQQKPGQAPILVIYGKNNRPSGIPDRFSGSSSGNTASLTITGAQAEDEADYYCNSRDSSGKNLVFGGGTKLTVLG	0.63 nM and 0.628 nM	9.43e-05 s⁻¹ and 9.31e-05 s⁻¹	148000 M⁻¹ s⁻¹ and 150000 M⁻¹ s⁻¹	148 pM	–	–	–	–	–	–	–	–	–	IC50, NK-92 proliferation assay [2]: 0.1 nM; Kd [3]: 0.982 nM; koff [3]: 0.000138 s⁻¹; kon [3]: 141000 M⁻¹ s⁻¹; Kd [4]: 1.28 nM; koff [4]: 0.000182 s⁻¹; kon [4]: 142000 M⁻¹ s⁻¹; Kd [5]: 0.979 nM; koff [5]: 0.000166 s⁻¹; kon [5]: 170000 M⁻¹ s⁻¹; Kd [6]: 1.07 nM; koff [6]: 0.00016 s⁻¹; kon [6]: 150000 M⁻¹ s⁻¹; binding result [8]: no binding; Kd [9]: 0.629 nM
Antibody 70a (antibody, human IgG1, lambda, Heavy S54Y + N56Y + I82aS, light N30S + S93L) heavy: not shown light: SSELTQDPAASVALGQTVRITCQGDTLRSYYASWYQQKPGQAPILVIYGKNNRPSGIPDRFSGSSSGNTASLTITGAQAEDEADYYCNSRDLSGKNLVFGGGTKLTVLGQPKAAPSVTLFPPSSEELQANKATLVCLISDFYPGAVTVAWKADSSPVKAGVETTTPSKQSNNKYAASSYLSLTPEQWKSHRSYSCQVTHEGSTVEKTVAPTECS	0.133 nM and 0.149 nM	3.47e-05 s⁻¹ and 3.75e-05 s⁻¹	252000 M⁻¹ s⁻¹ and 261000 M⁻¹ s⁻¹	18.2 pM	22 pM	14.7 pM	10.2 pM	no binding (tested: 10 µg/mL)	no binding (tested: 10 µg/mL)	no binding (tested: 10 µg/mL)	no binding (tested: 10 µg/mL)	no binding (tested: 10 µg/mL)	no binding (tested: 10 µg/mL)	binding result [10]: binds; binding result [11]: binds; binding result [12]: binds
Antibody 70f (antibody, human IgG4 S228P, lambda) heavy: QVQLQESGPGLVKPSGTLSLTCAVSGGSISSSNWWSWVRQPPGKGLEWIGEIYHYGYTNYNPSLKSRVTISVDKSKNQFSLKLSSVTAADTAVYYCAREGIGWPSFDYWGQGTLVTVSSASTKGPSVFPLAPCSRSTSESTAALGCLVKDYFPEPVTVSWNSGALTSGVHTFPAVLQSSGLYSLSSVVTVPSSSLGTKTYTCNVDHKPSNTKVDKRVESKYGPPCPPCPAPEFLGGPSVFLFPPKPKDTLYITREPEVTCVVVDVSQEDPEVQFNWYVDGVEVHNAKTKPREEQFNSTYRVVSVLTVLHQDWLNGKEYKCKVSNKGLPSSIEKTISKAKGQPREPQVYTLPPSQEEMTKNQVSLTCLVKGFYPSDIAVEWESNGQPENNYKTTPPVLDSDGSFFLYSRLTVDKSRWQEGNVFSCSVMHEALHNHYTQKSLSLSLG light: SSELTQDPAASVALGQTVRITCQGDTLRSYYASWYQQKPGQAPILVIYGKNNRPSGIPDRFSGSSSGNTASLTITGAQAEDEADYYCNSRDLSGKNLVFGGGTKLTVLGQPKAAPSVTLFPPSSEELQANKATLVCLISDFYPGAVTVAWKADSSPVKAGVETTTPSKQSNNKYAASSYLSLTPEQWKSHRSYSCQVTHEGSTVEKTVAPTECS	0.171 nM and 0.173 nM	4.44e-05 s⁻¹ and 4.32e-05 s⁻¹	249000 M⁻¹ s⁻¹ and 260000 M⁻¹ s⁻¹	–	29.8 pM	14.6 pM	7.3 pM	no binding (tested: 10 µg/mL)	no binding (tested: 10 µg/mL)	no binding (tested: 10 µg/mL)	no binding (tested: 10 µg/mL)	no binding (tested: 10 µg/mL)	no binding (tested: 10 µg/mL)	Kd [15]: 0.43 nM
